The Human Domainome abundance scans (Beltran et al. 2025)
± gives the uncertainty stated by the source.

assay: abundance fitness (aPCA) (normalised: wild type 0, dead -1); higher = more abundant; growth selection in yeast, the domain comes from the species named; details: Homo sapiens

In order of rising abundance fitness:
1. BAG family molecular chaperone regulator 3 R53W, O95817  -0.861 ± 0.14
2. BAG family molecular chaperone regulator 3 S44W, O95817  -0.86 ± 0.17
3. BAG family molecular chaperone regulator 3 T47G, O95817  -0.796 ± 0.14
4. BAG family molecular chaperone regulator 3 R53Y, O95817  -0.788 ± 0.14
5. BAG family molecular chaperone regulator 3 T46P, O95817  -0.752 ± 0.32
6. BAG family molecular chaperone regulator 3 T47H, O95817  -0.736 ± 0.3
7. BAG family molecular chaperone regulator 3 S44K, O95817  -0.7 ± 0.43
8. BAG family molecular chaperone regulator 3 S44C, O95817  -0.688 ± 0.31
9. BAG family molecular chaperone regulator 3 T34P, O95817  -0.688 ± 0.14
10. BAG family molecular chaperone regulator 3 T46A, O95817  -0.687 ± 0.32
11. BAG family molecular chaperone regulator 3 S44F, O95817  -0.682 ± 0.29
12. BAG family molecular chaperone regulator 3 T47D, O95817  -0.679 ± 0.42
13. BAG family molecular chaperone regulator 3 T46G, O95817  -0.65 ± 0.075
14. BAG family molecular chaperone regulator 3 S14G, O95817  -0.641 ± 0.1
15. BAG family molecular chaperone regulator 3 T47A, O95817  -0.613 ± 0.17
16. BAG family molecular chaperone regulator 3 T47L, O95817  -0.613 ± 0.28
17. BAG family molecular chaperone regulator 3 S14W, O95817  -0.576 ± 0.23
18. BAG family molecular chaperone regulator 3 T47E, O95817  -0.573 ± 0.15
19. BAG family molecular chaperone regulator 3 S56P, O95817  -0.572 ± 0.27
20. BAG family molecular chaperone regulator 3 T46H, O95817  -0.571 ± 0.4
21. BAG family molecular chaperone regulator 3 T34L, O95817  -0.568 ± 0.084
22. BAG family molecular chaperone regulator 3 T47M, O95817  -0.564 ± 0.24
23. BAG family molecular chaperone regulator 3 S44D, O95817  -0.557 ± 0.47
24. BAG family molecular chaperone regulator 3 S14C, O95817  -0.542 ± 0.42
25. BAG family molecular chaperone regulator 3 T46V, O95817  -0.531 ± 0.14
26. BAG family molecular chaperone regulator 3 T46L, O95817  -0.53 ± 0.12
27. BAG family molecular chaperone regulator 3 T47N, O95817  -0.53 ± 0.2
28. BAG family molecular chaperone regulator 3 S14F, O95817  -0.528 ± 0.28
29. BAG family molecular chaperone regulator 3 T34H, O95817  -0.495 ± 0.48
30. BAG family molecular chaperone regulator 3 S44E, O95817  -0.489 ± 0.17
31. BAG family molecular chaperone regulator 3 S44Y, O95817  -0.485 ± 0.39
32. BAG family molecular chaperone regulator 3 S44G, O95817  -0.483 ± 0.11
33. BAG family molecular chaperone regulator 3 S44H, O95817  -0.481 ± 0.37
34. BAG family molecular chaperone regulator 3 S56W, O95817  -0.473 ± 0.13
35. BAG family molecular chaperone regulator 3 T47I, O95817  -0.468 ± 0.23
36. BAG family molecular chaperone regulator 3 T46Q, O95817  -0.444 ± 0.14
37. BAG family molecular chaperone regulator 3 S44Q, O95817  -0.44 ± 0.29
38. BAG family molecular chaperone regulator 3 T46K, O95817  -0.435 ± 0.33
39. BAG family molecular chaperone regulator 3 S56H, O95817  -0.411 ± 0.37
40. BAG family molecular chaperone regulator 3 T34R, O95817  -0.391 ± 0.12
41. BAG family molecular chaperone regulator 3 S44M, O95817  -0.371 ± 0.15
42. BAG family molecular chaperone regulator 3 T46Y, O95817  -0.358 ± 0.33
43. BAG family molecular chaperone regulator 3 S44R, O95817  -0.335 ± 0.08
44. BAG family molecular chaperone regulator 3 T46C, O95817  -0.312 ± 0.086
45. BAG family molecular chaperone regulator 3 S14A, O95817  -0.285 ± 0.14
46. BAG family molecular chaperone regulator 3 T46I, O95817  -0.285 ± 0.21
47. BAG family molecular chaperone regulator 3 S14P, O95817  -0.269 ± 0.19
48. BAG family molecular chaperone regulator 3 S44L, O95817  -0.246 ± 0.17
49. BAG family molecular chaperone regulator 3 S56E, O95817  -0.24 ± 0.25
50. BAG family molecular chaperone regulator 3 T47C, O95817  -0.227 ± 0.27
51. BAG family molecular chaperone regulator 3 T46R, O95817  -0.225 ± 0.11
52. BAG family molecular chaperone regulator 3 S14V, O95817  -0.219 ± 0.14
53. BAG family molecular chaperone regulator 3 S56F, O95817  -0.205 ± 0.13
54. BAG family molecular chaperone regulator 3 T34E, O95817  -0.183 ± 0.19
55. BAG family molecular chaperone regulator 3 T46S, O95817  -0.183 ± 0.12
56. BAG family molecular chaperone regulator 3 T34W, O95817  -0.179 ± 0.083
57. BAG family molecular chaperone regulator 3 S14N, O95817  -0.156 ± 0.17
58. BAG family molecular chaperone regulator 3 T34Q, O95817  -0.148 ± 0.1
59. BAG family molecular chaperone regulator 3 S56A, O95817  -0.146 ± 0.12
60. BAG family molecular chaperone regulator 3 S56K, O95817  -0.136 ± 0.29
61. BAG family molecular chaperone regulator 3 S56C, O95817  -0.13 ± 0.18
62. BAG family molecular chaperone regulator 3 S56L, O95817  -0.125 ± 0.14
63. BAG family molecular chaperone regulator 3 S14Y, O95817  -0.113 ± 0.15
64. BAG family molecular chaperone regulator 3 S14T, O95817  -0.084 ± 0.19
65. BAG family molecular chaperone regulator 3 T34C, O95817  -0.073 ± 0.13
66. BAG family molecular chaperone regulator 3 S44N, O95817  -0.035 ± 0.25
67. BAG family molecular chaperone regulator 3 S14M, O95817  -0.022 ± 0.2
68. BAG family molecular chaperone regulator 3 S56G, O95817  -0.011 ± 0.063
69. BAG family molecular chaperone regulator 3 S56R, O95817  0.007 ± 0.063
70. BAG family molecular chaperone regulator 3 T34M, O95817  0.01 ± 0.23
71. BAG family molecular chaperone regulator 3 T34V, O95817  0.011 ± 0.17
72. BAG family molecular chaperone regulator 3 S14K, O95817  0.023 ± 0.28
73. BAG family molecular chaperone regulator 3 T34I, O95817  0.028 ± 0.2
74. BAG family molecular chaperone regulator 3 S14I, O95817  0.059 ± 0.23
75. BAG family molecular chaperone regulator 3 T34G, O95817  0.064 ± 0.087
76. BAG family molecular chaperone regulator 3 S56V, O95817  0.08 ± 0.1
77. BAG family molecular chaperone regulator 3 S56M, O95817  0.083 ± 0.12
78. BAG family molecular chaperone regulator 3 S14L, O95817  0.091 ± 0.11
79. BAG family molecular chaperone regulator 3 S14D, O95817  0.102 ± 0.14
80. BAG family molecular chaperone regulator 3 S56N, O95817  0.103 ± 0.19
81. BAG family molecular chaperone regulator 3 T34A, O95817  0.131 ± 0.12
82. BAG family molecular chaperone regulator 3 S56T, O95817  0.208 ± 0.16
83. BAG family molecular chaperone regulator 3 S44T, O95817  0.209 ± 0.11
84. BAG family molecular chaperone regulator 3 S14E, O95817  0.233 ± 0.085
85. BAG family molecular chaperone regulator 3 T34K, O95817  0.244 ± 0.23
86. BAG family molecular chaperone regulator 3 S56I, O95817  0.304 ± 0.1
87. BAG family molecular chaperone regulator 3 T34N, O95817  0.336 ± 0.26
88. BAG family molecular chaperone regulator 3 S56Y, O95817  0.376 ± 0.3
89. BAG family molecular chaperone regulator 3 T34S, O95817  0.579 ± 0.089
90. BAG family molecular chaperone regulator 3 S14H, O95817  0.623 ± 0.12
91. BAG family molecular chaperone regulator 3 S14Q, O95817  0.677 ± 0.15
